From US20220041697A1 (NEW YORK UNIVERSITY, published 2022)

Legend:
Assay in all cases: binding of antibody dilutions to peptides (FIG. 1)
[1] = molecular target: T1, Peptide Tau 386-408[phospho-serine396,404] (phosphoserine at positions 11 and 19 of SEQ ID NO: 1 (Ser396 and Ser404 of SEQ ID NO: 25))
T1 construct: For immunisation it was conjugated to KLH via a cysteine residue; also called P-Ser396, P-Ser404; diphosphorylated peptide

[2] = molecular target: T2, Tau 386-408 peptide phosphorylated only on serine 404 (phosphoserine at position 19 of SEQ ID NO: 1 (Ser404 of SEQ ID NO: 25); serine 11 not phosphorylated)
T2 construct: also called P-Ser404; P-Ser404 peptide

[3] = molecular target: T3, non-phosphorylated Tau peptide (Tau386-408) (none (serines 11 and 19 of SEQ ID NO: 1 not phosphorylated))
T3 construct: also called No-P; non-phosphorylated peptide

Measured: binding result

T2 sequence (peptide, as listed by the source): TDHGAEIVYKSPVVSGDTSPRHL

B1: Tau mAb 8B2D1 (antibody, V domains shown)
VH: EVQLQQSGPELVKPGASVKMSCKASGYTFTSYVIHWVKQKPGQGLEWIGYIYPYNDGTIYNEKFKGKATLTSDTSSSTVYMELISLTAEDSAVYWCVRERDNYGVYWGQGTTLTVSS
VL: DVLLTQTPLSLPVSLGDQASISCRSSQSIVHSNGNTYLEWYLQKPGQSPELLIYKVSNRFYGVPDRFSGSGSGTDFTLKISRVEAEDLGVYYCFQDSHIPYTFGGGTRLEIK
notes: Mouse (BALB/c) hybridoma monoclonal antibody; also called monoclonal antibody 8B2D1; anti-Tau 8B2D1 mAb
binds: all assays above
